Patent US12661396B2, “Selective targeting of the TREML1/MD2 interaction by small peptide or protein and its use for vaccine adjuvants” (Ascendo Biotechnology, Inc., priority 2020, dated 2026)

Key:
[1] = test system: Human peripheral blood mononuclear cells (PBMCs); test: TLR agonist-induced TNF-α secretion in human PBMCs with or without TREML1 ECD; type: cell-based; conditions: human PBMCs, 18 hr; FIG. 7A
Protocol: Human peripheral blood samples from healthy volunteer donors were collected by venipuncture bled into ACD vacutainer tubes. Human peripheral blood mononuclear cells (PBMCs), which were separated from whole blood using Ficoll-Paque Plus (GE17-1440-03) according to the manufacturer's instructions. Human peripheral blood mononuclear cells (PBMCs) were pretreated with or without […]1 (10 ug/ml, 5 ug/ml and 1 ug/ml) and incubated for 30 min at 37° C. with 5% CO2. After treatments, cells were stimulated with TLR agonist, including R848 (InvivoGen #tlrl-r848) and ODN2395 (InvivoGen #tlrl-2395), and incubated at 37° C. with 5% CO2 for 18 hr. Supernatants of cell culture medium were collected for TNF-α measurements. Cell supernatants and plasma samples were harvested and stored at -80° C. Human TNFα concentrations were detected using TNF-α DuoSet ELISA kit (R&D #DY210) according to manufacturer's instructions. Signals were developed using 3,3',5,5'-tetramethylbenzidine and the absorbance of 450 nm was detected with a microplate reader.

CD14 = target: T1, CD14 (Homo sapiens, UniProt P08571); test: Solid phase binding assay, hCD14 to immobilized TREML1 stalk; conditions: stalk coated 5 ug/ml; FIGS. 3A and 3B
T1 sequence (P08571 20-345): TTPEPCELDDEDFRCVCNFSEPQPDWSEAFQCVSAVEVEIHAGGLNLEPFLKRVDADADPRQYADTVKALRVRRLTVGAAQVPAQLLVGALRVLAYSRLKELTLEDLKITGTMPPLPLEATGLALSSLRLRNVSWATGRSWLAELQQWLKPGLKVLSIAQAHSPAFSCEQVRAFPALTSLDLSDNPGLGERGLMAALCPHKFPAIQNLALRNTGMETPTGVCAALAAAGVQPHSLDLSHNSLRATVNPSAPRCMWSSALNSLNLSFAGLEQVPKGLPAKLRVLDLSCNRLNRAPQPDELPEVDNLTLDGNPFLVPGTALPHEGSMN
Protocol: (§1) For TREML1 or mTREML1 stalk binding to human or mouse MD2 protein, TREML1 stalk or mTREML1 stalk (5 ug/ml in PBS) was coated separately on a 96-well plate. Recombinant hTLR4, hMD2, hCD14, or mMD2 was each serially diluted and added to the plates. Anti-His tag antibody-HRP was used as a detection antibody to detect the protein binding.

TLR4 = TLR4 (Homo sapiens, UniProt O00206); test: Solid phase binding assay, hTLR4 to immobilized TREML1 stalk; conditions: stalk coated 5 ug/ml; FIGS. 3A and 3B
Protocol: as §1

MD2 = target: T2, MD2 (Homo sapiens, UniProt Q9Y6Y9); test: Solid phase binding assay, hMD2 to immobilized TREML1 stalk; conditions: stalk coated 5 ug/ml; anti-His tag antibody-HRP detection; FIG. 3A
T2 sequence (Q9Y6Y9 19-160): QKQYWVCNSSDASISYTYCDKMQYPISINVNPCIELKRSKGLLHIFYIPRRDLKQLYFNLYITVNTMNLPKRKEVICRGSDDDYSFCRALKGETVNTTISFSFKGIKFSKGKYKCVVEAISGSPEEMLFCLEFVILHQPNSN
Protocol: as §1

BMDCs = test: Mouse bone marrow derived dendritic cell maturation (flow cytometry); type: cell-based; conditions: FIG. 8
Protocol: Femurs and tibiae were harvested from female C57BL/6 mice and extra muscle tissues were removed. Bones were disinfected in 70% ethanol, then rinsed with RPMI-1640 medium, and both ends were cut to flush out the bone marrow with RPMI-1640 medium using 26 G needle syringes. To disperse cell clumps, bone marrow suspension was pipetted in-and-out several times and washed twice with RPMI-1640 medium by centrifugation. […] At day 0, after cell counting, the leukocytes were seeded at a concentration of 2×10^6 cells/10 ml R10 medium containing 200 U/ml rmGM-CSF in sterile […] Petri dish and incubated at 37° C. with 5% CO2. At day 3, another 10 ml of R10 medium containing 200 U/ml rmGM-CSF was added. At days 6, one half of the supernatant was taken out and centrifuged to collect cell pellet, which was resuspend in original plate with 10 ml of R10 medium containing 200 U/ml GM-CSF. At day 8, non-adherent cells were collected by gentle pipetting and centrifuged at 300 g for 5 min. To obtain purer dendritic cells, the population of macrophages (F4/80^high) was removed with Anti-F4/80 MicroBeads UltraPure (130-110-443, Miltenyi Biotec, Bergisch Gladbach, Germany) following the manufacturer's instructions. Briefly, cell pellet was resuspended and mixed well in MACS buffer with Anti-F4/80 MicroBeads UltraPure. This mixture was incubated for 15 min in the dark in 4° C. After washing cells with MACS buffer, cells were resuspended in MACS buffer, filtered with 30 μm nylon mesh, and added to the MACS buffer rinsed column to separate F4/80^+ cells. Unlabeled cells were collected and washed with R10 medium. To freeze the cells, cell pellet was counted and resuspended at a concentration 1×10^7 cell in 2 ml CELLBANKER2 (#11891, ZENOAQ) per cryopreservation vial and stored at −80 degree Celsius.
BMDCs were thawed for the DC maturation experiments. These cells were seeded at 1×10^6 cells/2 ml in R10 medium containing 200 U/ml rmGM-CSF in wells of a 6-well tissue culture dish and cultured to recover the cell viability at 37° C. with 5% CO2. After 6 hr, BMDCs were treated with various fragments of mTREML1 protein and cultured in 37° C. with 5% CO2. On the next day, resuspended cells were collected and analyzed by flow cytometry.
Cells were centrifuged at 1800 rpm for 3 min in PBS containing 1% FBS and 0.1% sodium azide (PBSBA), and then divided at a concentration of 1×10^5 cells/100 ul PBSBA in flow tube. Before staining the surface marker of DC, cells were treated with mouse Fc blocker to avoid antibody non-specific binding at room temperature for 30 min. […] After PBSBA washing, samples were analyzed using the CytoFlex flow cytometer with the CytExpert software.

TLR4, sequence (O00206 24-839): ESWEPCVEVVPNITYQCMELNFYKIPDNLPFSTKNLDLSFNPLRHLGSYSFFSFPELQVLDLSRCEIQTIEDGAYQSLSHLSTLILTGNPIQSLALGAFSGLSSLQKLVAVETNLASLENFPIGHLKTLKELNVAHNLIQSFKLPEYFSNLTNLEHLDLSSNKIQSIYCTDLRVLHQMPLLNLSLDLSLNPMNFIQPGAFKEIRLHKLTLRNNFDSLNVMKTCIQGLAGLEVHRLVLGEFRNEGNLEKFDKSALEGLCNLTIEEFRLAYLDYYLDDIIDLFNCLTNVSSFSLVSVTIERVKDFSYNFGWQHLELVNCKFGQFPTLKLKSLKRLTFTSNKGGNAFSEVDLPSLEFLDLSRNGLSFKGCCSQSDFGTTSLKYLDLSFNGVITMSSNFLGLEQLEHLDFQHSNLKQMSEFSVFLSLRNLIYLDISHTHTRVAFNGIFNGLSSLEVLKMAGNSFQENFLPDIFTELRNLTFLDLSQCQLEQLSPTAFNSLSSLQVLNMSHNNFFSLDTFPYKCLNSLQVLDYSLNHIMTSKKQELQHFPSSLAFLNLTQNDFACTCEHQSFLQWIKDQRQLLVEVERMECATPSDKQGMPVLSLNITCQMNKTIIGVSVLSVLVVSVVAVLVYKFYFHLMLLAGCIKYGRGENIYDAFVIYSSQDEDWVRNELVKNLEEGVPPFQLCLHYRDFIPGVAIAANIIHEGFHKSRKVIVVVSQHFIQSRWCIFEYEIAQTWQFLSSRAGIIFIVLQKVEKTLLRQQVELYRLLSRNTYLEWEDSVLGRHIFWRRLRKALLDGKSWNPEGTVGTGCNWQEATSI

CCOCc1nc2c(N)nc3ccccc3c2n1CC(C)(C)O [R848, 4-amino-2-(ethoxymethyl)-α,α-dimethyl-1H-imidazo[4,5-c]quinoline-1-ethanol, reference compound]
TNF-α secretion induced by TLR agonist alone [1]: can induce TNF-α secretion

TREML1 stalk: human TREML1 stalk polypeptide, SEQ ID NO:3, ILPPEEEEETHKIGSLAENAFSDPAGSANPLEPSQDEKSIP, chemically synthesized (listed as Homo sapiens)
CD14 binding to immobilized TREML1 stalk (CD14): do not bind TREML1 stalk
TLR4 binding to immobilized TREML1 stalk (TLR4): do not bind TREML1 stalk
MD2 binding to immobilized TREML1 stalk (MD2): binds with TREML1 stalk in a concentration-dependent manner

B1: mTREML1 ECD: mouse TREML1 extracellular domain, SEQ ID NO:2; recombinant, E. coli, polyhistidine tag at the N-terminus (protein, listed as Mus musculus)
chain: DSHPEVLQAPVGSSILVQCHYRLQDVRALKVWCQFLQEGCHPLVTSAVDRRAPGNGRIFLTDLGGGLLQVEMVTLQEEDTGEYGCVVEGAAGPQTLHRVSLLVLPPVPGPREGEEAEDEKETYRIGTGSLLEDPSLDPSASAGPHEFRRRENSIP
modifications: N-terminal polyhistidine tag
notes: recombinant, E. coli, polyhistidine tag at the N-terminus
dendritic cell maturation effect compared with TNF-α (BMDCs): significantly stronger than those of TNF-α
dendritic cell maturation (DC maturation markers CD40, CD86, CD80, MHC II) (BMDCs; analyzed the next day): can trigger dendritic cell maturation
